Test results reported in the DeepSol protein solubility set.

Assay: soluble on expression in E. coli; label from the status in PepcDB or PDB records

**Q.** With “MAHHHHHHMTVYHEQFALVPPQYPRRAVQEAENHRALAALYELVENAIATAENYVAYTEGRLVPLSSRGSELLAASKELRERYRHEAPCGWTEQKVMQHCEQEVTVEEMAELLLRPPLDVSGIRSILRTLQETRTQLPRGRFLLMRDNLSALKPHQPPDLVRDLSDVCGALYEIQYVDLMAELRAELSELDGERDKVQEKLKDAIHLYERALAKGDVVEVERAHRQLIAARYEFVNACAKLMHQILGEDMASQESGFAAEMEALRRDATDSISRFVEALHERRQAFRNDLHNCDKKRLEEDGNHQKCLEAYNAEERETAAQIGQIVEQKKKLVEELRQKARELRDITLKQKEMVEAQVRAKRAEEERVTAYNEFVNMEEQQKHRLLRCLAYFDGMEELTADLRSYVDEMVTRIPQQNLRQVIDQLNDIEAEAFMNAYSGFVSCCGELTVKKMHRLDTLERQARLLEHNRDSAMESLDPNMSNYRLELDDIIEQMKGVSGVINALNATQDAGEQLFQSVEKGVLAKYERSGTPFVHPLQEYGIKSVEERNRFVDRSMHYVENEERKVFEKRNVLNRMRQAVEEDEAATESAIRNLPAAPEY” as the sequence, how does the “soluble on expression in E. coli” value read?
**A.** soluble

**Q.** With “MAHHHHHHMVGLVKPLFPNTLLTEAQDERRLLTLVLDLDETLVSNRDSRQSAAVLRPYCLHVLNALRHMKELEIVLWTASTKETALPVVDQLHKTGIIFDDIIFRNSIWFTQPIHTKDLRLLGRDMNRVLIVDNSVGCCKLHPRNALLVEDFHGVKRREDAALVNVYYVVDALLRMMRERTMPVSEGLGCLMAEGQLCHPVSYDLPAFFKCIPLTEVPELKRPPVGRFARANTAPPNTSIMQHWVY” as the sequence, how does the “soluble on expression in E. coli” value read?
**A.** soluble

**Q.** Which “soluble on expression in E. coli” value does the source give for “MAHHHHHHMVIFFGRAQTRRVTGKVVVFGATTNVGKHLSLLLTLSPQVKELCCFDPLNDVTLRMTETRVRGIVKDLSHIDTGVVLRAVDDPQQWEPAMRNAQLVLICTGSIPNPSRLQRDLALAECAPEYLVAMELVARAAPHAIVGIASGPVNSLVPLAREVLLRHSAFDPRKLFGITSRDVMRTRVLFAKELHMNPYDVNVHVVGGKGDATVCPLITQTGFQLPHQRMVQLCEEVQRPENFTAGDHNSTGCRVDSQNVQGQEKFTCPTLSTANAAYEWVTSIMKAQRGDRGITECSFVESSIKRETPFFSSRVELGEEGAAQLLPLGALTPYEEELVAAAVPLIVEDVEAGLRLSKTGVDAVS” here?
**A.** not soluble

**Q.** With “MAHHHHHHMVLTLDCSQAVQNTIRELQDTRAFTDDDGAETIATTWFSDVGLCITGYTRDLVAAINSQGTPSVVVVIQNLHTFADRQRQKVLKIHQRYFNSVLSDTTKVVPVVSQDDYTKILRHMQVSKIRTLKWRDQHPYMAVEEKAYNPETQELTITGHLRGMPLSATQLVHLTNHGTFQVCKIEEVRKGDERVLIETSEAAQRESLQQVQANSTLEDDGFPTDADVLYHQEIAGTHKIRVPAGVSSDQAAWYDTEENIVKDSAPKHQHITMDDEDAFAGDAMSYRTTQTDVDFLKAEDVVRLERMTDEERILEMEKLKELSEEETWNPDMVDTPVNIPARQRFAKYRGMRSFHTGRWDPAENLPPQYAYIYKLQGYSRIRESAIDACEGGMAEVGMCIAITLVNVPQSVWNACERCLLIASGQLQHEQKWSVLHFQVQRASELDEPIKSKTPMLAHIGFRKFYVSPLFSDISSGDRSKFARFFHEGDRFRMATFFGPISYNPCPLLLFQVPSLEEQAEGNPLRLACFGGSLPPNPETLLLKRAVLSGRVAVIHKKQVVVKYMFFNDEDIKWFQPVDLYTKFGRRGKITKPVGTHGLFKAVLNDQIMQHDVVCMDLFKRVFPKWTTVAFSMSDVPAGHTENEEER” as the sequence, how does the “soluble on expression in E. coli” value read?
**A.** not soluble

**Q.** With “MAHHHHHHMVNTLLNYSESIQLGDELSNLLEFTREMNAYLRGTQVAESDVLREAHNSFAPTEFFVLHDETPDASDVYHFVSFVYKNGAVWELDGLQKGPILAADATDGNYKEKLVEVVQKRVIDKSAADNTGTGQGISFSLMAVVDDRLLQLEKEIEEAKAREEPTAYLAEQLEELRLQREKGRAENQRRRHNYVPMIVELLKALAEKGKLEGIVEEALAKKAASASSDRS” as the sequence, how does the “soluble on expression in E. coli” value read?
**A.** soluble

**Q.** Which “soluble on expression in E. coli” value does the source give for “MAHHHHHHMVPVKVKWGRETFELTVDLRSTVKCFKEQLQQLTSVPVERQKIMGVKASQCNDNEVTLEAAGVAAGKTLMLIGTAAEVVRATPIVATGNKDSAVQAPASHPAEKQAVGLQNIANTCYMNAAVQMLRLVPEVRDVLNFNANDPIVSELLKLYNTMDTKRDPVVPASLWSILLAHFPTFAEVNEKGHPMQHDSQEALNALLQRINSCLPESHKRLFTGNLSQKMVCKDDPDDQPVLHDVPFLMLSCNIDAEIETLEAGLEAAFNETVKLHSEKLAREALHTRTSRIAAMPEYLFIHMVRFSWRSDIQSKAKILKPVTFPMTLDLHALCAEEYKPELEVERKRVLKRRDIEMERRRAAKNKTKLDDDEAAPAEDASNTAEPINTTVGNHSGYYELCGVISHKGRSADSGHYVFWGKYADQWMVLDDSNTAAVSEEDVKRLRGSGEAHIAYVLMYRSRDPRTKQSVIPL” here?
**A.** soluble

**Q.** For “MAHHHHHHMVSGFVEFEILRGKNYPQTEDDPNPCTTQVTVSVVDALSGAVLSRAQLSSIQQNSNAPFYNDTLNFRVEDAPEDVCLSISVSEHSRQKIPFVLFYGKQIIGLSKLKAKQRFVIPLFSGEEGTQQVEIGADTLDLESSGKVPFLSARIQFTKDKVFDKTDPYSDVDVSGKGLSFDGKNQLVPEGTQYVWLRLKSDKKWTNSFQYELSVAWRSRAPLEAENQGNTKSRKGTTGGMAAISAEPDSARTLGDIIIKKWCCRRTHQVLTRVCITAEKYGNKVTDLTFTPKEEVEFRTNKKERCVFLEQICKKRLEDACSNCLRQWLNRLWILFVTGVDSDPAEARALSYEVRKAVHDAQFTEADAIILQACLLFSFIPSLKYEVCQALSESDYQAAQSEKKIEVGALESPQCRVTPSQEMFTRVFISFVGSLLDTLTEAEIAKAAAEFKPAIWDAQQRIAKGAKSTIGSCKKKYEGSIFKGTGIHIDHLDKLGRRKQVPKFV”, which “soluble on expression in E. coli” value is on record?
**A.** soluble

**Q.** Which “soluble on expression in E. coli” value does the source give for “MAHHHHHHMVVFINGLPVLTFELKNSLTKQTVADAVVQYQTDRNPAELLFQLGRCIAHVAVDDAEVRFCTHLTGKTSWFLPFNQGWNSGAGNPPNPNGLRTDYLWKQVLAKESLANIIENYAQVIEEEEEDTNGRKRRTRKQIFPRFHQLRTVRALMRRSRADGVGKRYLIQHSAGSGKSNTIAWLAHQLVELKTAADNTQAQFDSVIVITDRRALDAQIARTIKAYDHVASIYGHSESADELRTFLAPGQEDHRHHGAEVPVHPDELGGTL” here?
**A.** not soluble

**Q.** For “MAHHHHHHMWYSNLFVAKLPRHLCDGDLLQIFSNFNPLGAKIMLDPSTGNSKGFGFVLFDKEEEGRTAYERLNRKLVRVCNSSFNLLIYPSQHNGKAVTLPSRAVYIRNIPTTMGEREVQNFLSNLAPLEYCAMRGDHHGNPVWVVYAEFDTPQNAQRVLDKLHGNSNHFGGPPIMVKYADTDEAKRERRRRREEGRLAPGPALKGACLFPPPRPGVVSLNQTQVSQSATETSPSCSPAAHHVTKTKMVAPMVEVEPRAQPLYFSTSPVTAMPPLLPVDMSYDGAAATVPLQTADCPAANGVLVLGNGQQVFLTPNAVNLHPTKFNAPPTALLVPAVDTTLVPLPPQRTLVYGPW”, which “soluble on expression in E. coli” value is on record?
**A.** not soluble

**Q.** For “MAHHHHHHMYAIADTDDILIRSNPCRLSVNGVHISVCNEDVVGDMRDRMVERWPTADGSLRRVVEALVNGRLYVPLYSLPVATADLKHLPHLRMDYVPSQNELLEIKPAAAALASSTATKGDRRGNADGSDATTSTSGASSSRGWETVFSVAEQPSTDMAAWLQHKVKRAKLEDAAGDNEEGDAASAPGGPVTPSTPTASSKTEYLPHIMFLPSTRPQFATVTHQSEEVDGADIDSAESASGVLVVNQEVWSTRSSPKFELRVAEVTIPNTDLVLRRGATSTNGVTCGVLHIYSA”, which “soluble on expression in E. coli” value is on record?
**A.** soluble

**Q.** For “MAHHHHHHMYVAIYNIGKKKNIGSIVRSCVAFRVSKIFVVSRKKNQVNFFGHMGTCEYITIEYFSSMKELKTHLRDNGILLYACEITSSAVPVTRRPFENKDTAFLFGNEGTGINDETLSYCDKVVYIPQYGNGTCSLNVSVSCAIILHHFAVWADYPEVGISGKKFVLNKCATKLERYLNPSDDLLRQISEKRAQRAATKLASPDWAAPHFADPSPDLFPG”, which “soluble on expression in E. coli” value is on record?
**A.** not soluble

**Q.** For “MAHHHHHHMYVLEGFYESVYNARWHHVVEVPDGEGTGMEVREGKSPQSWTYRAAGEFLEKNDGEEQSGALRPRLMVLTSGKGWPYSWEEDESTPDCYVNCEVDRVWQIVRNDLTELLGPDPGADFRPERRVLIGTPGIGKSLAAGSYLLYQLLQYDAEQLPMVAYVFAGRK”, which “soluble on expression in E. coli” value is on record?
**A.** not soluble
